Measurements reported in PMC11130202.

Biological target: Spa2(281-535) (S. cerevisiae (budding yeast)) (UniProt P23201)
Assay: AUC; sedimentation velocity; 20 mM HEPES pH 7.4, 50 mM NaCl, 20 °C; Spa2(281-535) 18 μM, Spa2(1-535) 13 μM, Spa2(1-281) 17 μM

Spa2(281-535) (from UniProt P23201 281-535) (domain or fragment)
stoichiometry N: 2
